In US20190248903A1 (Genentech, published 2019) one finds Kd data, which are given here for one molecule.

Experiment [1] concerns the target T1, cynomolgus CLL-1 on cells (HEK293AD cells stably expressing recombinant cynoCLL-1) (cynomolgus monkey).
T1 construct: also called 293AD/cynoCLL-1; 293AD/cynoCLL1
T1 chain: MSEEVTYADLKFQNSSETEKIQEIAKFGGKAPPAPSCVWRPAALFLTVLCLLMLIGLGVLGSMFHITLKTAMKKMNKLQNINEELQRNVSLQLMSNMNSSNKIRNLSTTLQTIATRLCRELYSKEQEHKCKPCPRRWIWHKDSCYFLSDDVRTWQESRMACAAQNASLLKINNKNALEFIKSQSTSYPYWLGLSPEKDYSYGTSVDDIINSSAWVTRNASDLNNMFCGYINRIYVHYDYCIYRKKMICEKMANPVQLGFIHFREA
Nature of the experiment: Scatchard analysis on 293AD/cynoCLL1 cells. The method, then:
Competition assay mixtures of 50 μL volume containing a fixed concentration of [I¹²⁵] labeled antibody and decreasing concentrations of serially diluted, unlabeled antibody were placed into 96-well plates. HEK293AD cells stably expressing recombinant hu or cynoCLL-1 or HL-60 tumor cells expressing endogenous CLL-1 were cultured in growth media at 37° C. in 5% CO₂. Cells were detached from the flask using Sigma Cell Dissociation Solution and were washed with binding buffer, which consisted of Dulbecco's Modified Eagle Medium (DMEM) with 1% bovine serum albumin (BSA), […] and 0.1% sodium azide. The washed cells were added to the 96 well plates at a density of 100,000 cells in 0.2 mL of binding buffer. […] The final concentration of the unlabeled antibody in the competition assay ranged from 1000 nM through ten 2-fold dilution steps to a 0 nM buffer-only assay. Competition assays were carried out in triplicate. Competition assays were incubated for 2 hours at room temperature. […] The filters were counted on a Wallac Wizard 1470 gamma counter (PerkinElmer Life and Analytical Sciences Inc.; Wellesley, Mass.). The binding data was evaluated using NewLigand software (Genentech), which uses the fitting algorithm of Munson and Robard to determine the binding affinity of the antibody (Munson and Robard 1980).

Experiment [2] concerns the target T1, cynomolgus CLL-1 on cells (HEK293AD …). Nature of the experiment: Scatchard analysis on 293AD/cynoCLL1 cells; 293AD/cynoCLL1 cells.

B1: humanized 6E7.L4H1e (antibody, V domains shown)
VH: EVQLVQSGAEVKKPGASVKVSCKASGYSFTDYYMHWVRQAPGQGLEWIGRINPYNGAAFYSQNFKDRVTLTVDTSTSTAYLELSSLRSEDTAVYYCAIERGADLEGYAMDYWGQGTLVTVSS
VL: DIQMTQSPSSLSASVGDRVTITCRASQSVSTSSYNYMHWYQQKPGKPPKLLIKYASNLESGVPSRFSGSGSGTDFTLTISSLQPEDFATYYCQHSWEIPLTFGQGTKVEIK
notes: also called h6E7.L4H1e; 6E7.L4H1eN54
Usually Kd stands for the free concentration of one partner at which half of the binding sites on the other are occupied at equilibrium, for simple one-to-one binding. As for B1, the Kd in experiment [1] came out at 0.22 nM; in experiment [2] it was 0.67 nM.
